One block for each binder: values may come before it.
Target: recombinant human CD3 (human) (UniProt P07766)
Assay: SPR (Biacore T200, 37 degrees C), antibody captured by anti-human Fc, antigen as analyte, 1:1 model

Chain of recombinant human CD3 (human) (P07766 23-126): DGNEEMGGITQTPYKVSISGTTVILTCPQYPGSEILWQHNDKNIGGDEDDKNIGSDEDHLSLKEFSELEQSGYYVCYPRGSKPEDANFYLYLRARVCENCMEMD

Kd: 17.8 nM
koff: 0.00151 s⁻¹
kon: 85000 M⁻¹ s⁻¹
B1: GPC3/CtrlxCD3 trispecific antibody (protein, from a related filing, part only)
VH 1: QVQLVESGGGLVQPGRSLRLSCAASGFTFSNAWMHWVRQAPGKGLEWVAQIKDRANSYNTYYAESVKGRFTISRDDSKNSIYLQMNSLKTEDTAVYYCRYVHYTTYAGSSFSYGVDAWGQGTTVTVSS
VL 1: DIVMTQSPLSLPVTPGEPASISCRSSQPLVHSNRNTYLHWYQQKPGQAPRLLIYKVSNRFSGVPDRFSGSGSGTDFTLKISRVEAEDVGVYYCGQGTQVPYTFGQGTKLEIK
VH 2: QVQLVQSGAEVKKPGASVTVSCKASGYTFTDYEMHWIRQPPGEGLEWIGAIDGPTPDTAYSEKFKGRVTLTADKSTSTAYMELSSLTSEDTAVYYCTRFYSYTYWGQGTLVTVSS
VL 2: B1 VL 1
modifications: left off: another chain or arm of the molecule; a dimerising Fc or GST

Kd: 17.5 nM
koff: 0.00147 s⁻¹
kon: 83700 M⁻¹ s⁻¹
B2: Ctrl/CtrlxCD3 trispecific antibody (protein, part only; not given: Control arm variable domains, constant regions, part only)
VH: B1 VH 1
VL: B1 VL 1

Reference: patent publication US20240270846A1
